# Assay results as given in patent US20210355225A1 (OSE IMMUNOTHERAPEUTICS, published 2021).
# Changes are numbered by the printed parent chain.
# B1: HCLD (antibody, human IgG4 S228P, kappa, V domains shown)
# VH: QIQLVQSGSELKKPGASVKVSCKASGYTFTHYAMNWVRQAPGQGLEWMGWINTNTGEPTYAQGFTGRFVFSLDTSVSTAYLQISSLKAEDTAVYYCAREREPGMDSWGQGTLVTVSS
# VL: DVVMTQSPLSLPVTLGQPASISCRSSQSLVHANTNTYLEWYQQRPGQSPRLLIYKVSNRFSGVPDRFSGSGSGTDFTLKISRVEAEDVGVYYCFQGTHVPNTFGQGTKLEIKR
# notes: also called humanized anti-PD1 variant HC heavy chain + LD light chain
# B2: HHLD (antibody, human IgG4 S228P, kappa, V domains shown)
# VH: B1 VH with S106H
# VL: B1 VL
# notes: also called humanized anti-PD1 variant HH heavy chain + LD light chain
# B3: HGLD (antibody, human IgG4 S228P, kappa, V domains shown)
# VH: B1 VH with D105E
# VL: B1 VL
# notes: also called humanized anti-PD1 variant HG heavy chain + LD light chain
# B4: HJLD (antibody, human IgG4 S228P, kappa, V domains shown)
# VH: B1 VH with S106Y
# VL: B1 VL
# notes: also called humanized anti-PD1 variant HJ heavy chain + LD light chain
# B5: HKLD (antibody, human IgG4 S228P, kappa, V domains shown)
# VH: B1 VH with S106N
# VL: B1 VL
# notes: also called humanized anti-PD1 variant HK heavy chain + LD light chain; humanized anti PD-1 (HKLD variant)
# B6: HLLD (antibody, human IgG4 S228P, kappa, V domains shown)
# VH: B1 VH with S106E
# VL: B1 VL
# notes: also called humanized anti-PD1 variant HL heavy chain + LD light chain
# B7: HELD (antibody, human IgG4 S228P, kappa, V domains shown)
# VH: B1 VH with S106T
# VL: B1 VL
# notes: also called humanized anti-PD1 variant HE heavy chain + LD light chain; HELD(V94)
# B8: HILD (antibody, human IgG4 S228P, kappa, V domains shown)
# VH: B1 VH with S106A
# VL: B1 VL
# notes: also called humanized anti-PD1 variant HI heavy chain + LD light chain
# B9: HCLC (antibody, human IgG4 S228P, kappa, V domains shown)
# VH: B1 VH
# VL: B1 VL with T34G
# notes: also called humanized anti-PD1 variant HC heavy chain + LC light chain
# B10: HELC (antibody, human IgG4 S228P, kappa, V domains shown)
# VH: B1 VH with S106T
# VL: B1 VL with T34G
# notes: also called humanized anti-PD1 variant HE heavy chain + LC light chain
# Biological target: chimeric PD-1 receptor fused to Beta-gal fragment (ED) on Jurkat T cells (DiscoverX PathHunter Jurkat PD-1 … (UniProt Q15116 25-288))
# Sequence (Q15116 25-288, change not shown): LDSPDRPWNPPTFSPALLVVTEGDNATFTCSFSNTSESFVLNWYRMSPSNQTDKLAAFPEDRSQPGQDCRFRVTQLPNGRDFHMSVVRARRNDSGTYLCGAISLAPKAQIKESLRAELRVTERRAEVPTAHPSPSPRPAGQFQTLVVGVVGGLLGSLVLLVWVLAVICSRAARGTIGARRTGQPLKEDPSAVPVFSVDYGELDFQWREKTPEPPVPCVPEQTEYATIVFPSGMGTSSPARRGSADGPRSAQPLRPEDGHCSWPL
# Test: cell-based or functional assay
row,"IC50 of PD-1/pSHP-1 signaling, DiscoverX PathHunter Jurkat PD-1 (SHP1) assay, chemiluminescence [ng/mL]",Binder
1,12.7,B1
2,16.9,B2
3,14.8,B3
4,13.4,B4
5,11.4,B5
6,16.6,B6
7,19.2,B7
8,11.6,B8

# Biological target: T1, human PD-1 expressed on the cell surface (human, UniProt Q15116 25-288)
# T1 sequence (Q15116 25-288): as the sequence (Q15116 25-288, change not shown) above
# Test: cell-based or functional assay
row,"ED50 of NFAT luciferase luminescence, Promega PD-1/PD-L1 bioassay [µg/mL]",Binder
1,0.41,B1
2,0.54,B2
3,1.16,B3
4,0.9,B4
5,0.69,B5
6,0.89,B6
7,0.46,B7
8,0.4,B8

# Biological target: T2, Recombinant hPD1-His (Sino Biologicals, reference […]-H08H) (human, UniProt Q15116 25-167)
# T2 construct: Bought reagent; also called human PD1 recombinant protein; PD-1 recombinant protein; not shown: histidine tail
# Test: ELISA on immobilised recombinant hPD1, DO 450 nm
row,EC50 (read off the curve) [µg/mL],Binder
1,~0.009,B7

# Biological target: T2, Recombinant hPD1-His (Sino Biologicals, …)
# Test: ELISA on immobilised recombinant hPD1, DO 450 nm
# Remark: another data set of the same source
row,EC50 (read off the curve) [µg/mL],Binder
1,~0.01,B7

# Biological target: T2, Recombinant hPD1-His (Sino Biologicals, …)
# Test: Biacore SPR, antibody captured on anti-human Fc, hPD1-His as analyte
# Protocol: The affinity measurement was performed by Biacore in PP21 platform (Inserm U1194, Université de Montpellier). Anti-human Fc antibody (GEHealthcare) was immobilized at 25 μg/ml in acetate buffer pH5.
Kd [pM],koff [s⁻¹],kon [M⁻¹ s⁻¹],Binder
4100,~0.00133,324000,B5

# Biological target: T1, human PD-1 expressed on the cell surface
# Test: flow cytometry on CD3/CD28 stimulated human T cells (PD1+ CD3+); given as ED50
# Protocol: (§1) Detection was performed with a donkey anti-human antibody coupled to peroxidase and revelation was performed by colorimetry at 450 nm using TMB substrate. […] B: Assessment of antibody binding by cytofluorometry on CD3/CD28 stimulated human PBMCs. […] Data are represented by Mean Fluorescence Intensity (MFI) staining in PD1+ positive CD3+ T cell population. C: Assessment of antibody binding by cytofluorometry on CD3/CD28 stimulated T cells. […] Data are represented by Mean Fluorescence Intensity (MFI) staining in PD1+ positive CD3+ T cell population
row,EC50 [pM],Binder
1,278,B1
2,133,B2
3,1540,B3
4,241,B4
5,187,B5
6,223,B6
7,402,B7
8,118,B8

# Biological target: T2, Recombinant hPD1-His (Sino Biologicals, …)
# Test: Blitz (BLI), hPD1-His on Ni-NTA biosensor, antibody 20 µg/mL in solution (avidity)
# Protocol: The binding affinity/avidity was measured using Blitz method (Forté Bio; USA; reference C22-2 No 61010-1). […] Then, anti-PD1 antibodies were associated with 20 μg/mL for 120 seconds. The dissociation of anti-PD1 antibody was made in kinetics buffer for 120 seconds. Analysis data was made with the Blitz pro 1.2 software, which calculated association constant (ka) and dissociation constant (kd) and determined the affinity constant KD […].
Kd [pM],koff [s⁻¹],kon [M⁻¹ s⁻¹],Binder
1340,0.000429,319000,B1
840,0.000343,405000,B2
1280,0.000352,274000,B3
1050,0.000432,410000,B4
750,0.000262,351000,B5
1250,0.000554,441000,B6
1140,0.000507,443000,B7
930,0.000427,458000,B8

# Biological target: T2, Recombinant hPD1-His (Sino Biologicals, …)
# Test: Biacore competition with PDL1 for PD1, relative response in % of no Ab
row,binding result,Binder
1,binds,B9

# Biological target: T2, Recombinant hPD1-His (Sino Biologicals, …)
# Test: ELISA, immobilized recombinant hPD1, purified antibody from HEK cells; given as ED50
# Protocol: as §1
row,EC50 [µg/mL],Binder
1,0.0127,B1
2,0.0164,B2
3,0.0147,B3
4,0.0134,B4
5,0.0114,B5
6,0.0166,B6
7,0.0192,B7
8,0.0115,B8

# Biological target: T3, biotinylated Human PD1 (AcroBiosystems, reference EP-101) (human, UniProt Q15116 25-167, biotinylated)
# T3 construct: also called Biotin-PD-1Fc; not shown: Fc part implied by the name 'Biotin-PD-1Fc'
# T3 sequence (Q15116 25-167): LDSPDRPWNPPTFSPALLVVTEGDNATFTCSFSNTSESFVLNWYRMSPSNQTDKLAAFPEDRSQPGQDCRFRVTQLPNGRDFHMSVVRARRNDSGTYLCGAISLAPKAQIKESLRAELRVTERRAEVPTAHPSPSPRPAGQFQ
# Test: competition ELISA, immobilized hPDL1 as competitor, biotinylated PD1 0.66 µg/ml mixed with antibody
row,IC50 [µg/mL],Binder
1,0.196,B1
2,0.201,B2
3,0.178,B3
4,0.194,B4
5,0.205,B5
6,0.156,B6
7,0.196,B7
8,0.175,B8

# Biological target: T1, human PD-1 expressed on the cell surface
# Test: Flow cytometry on CD3/CD28 stimulated human PBMCs, PE-labelled mouse anti-human Fc mAb, MFI in the PD1+ CD3+ T cell population
# Protocol: as §1
row,EC50 (read off the curve) [µg/mL],Binder
1,~0.3,B10
2,~0.3,B7
